In publication PMC6637204, “Inactivating mutations and X-ray crystal structure of the tumor suppressor OPCML reveal cancer-associated functions” (Nature Communications, 2019):
Substitutions are numbered along the chain they refer to. Names and notes keep the numbering of the source.

Assays:
[1] = target: the molecule itself; assay: SAXS; WT OPCML in 50 mM HEPES pH 7.5, 200 mM sodium chloride, 2% glycerol, 0.02% sodium azide; three concentrations merged; fit to dimer and monomer models
[2] = target: the molecule itself; assay: SEC-MALLS; samples at 1 µg/µL, 1 mL/min in PBS pH 7.4, room temperature
[3] = target: the molecule itself; assay: SEC; gel filtration; dilutions equilibrated 24 h, 50 µL on Superdex 200 10/30 GL at 0.5 mL/min; peak elution volume against concentration fit to a monomer-dimer equilibrium (dimer to monomers)
[4] = MTS viability, R428 IC50, SKOV3; settings: glycan lost; control: wild type
[5] = immunofluorescence confocal microscopy; settings: glycan lost; control: wild type
[6] = SYPRO Orange thermal shift assay; settings: glycan lost; control: wild type
[7] = recombinant secretion from insect cells; settings: glycan lost; control: wild type
[8] = gel filtration; settings: glycan lost; control: wild type
[9] = Caspase-Glo 3/7 assay, SKOV3; settings: glycan lost; control: wild type
[10] = western blot, transduced SKOV3, PEA1, PEO1; settings: glycan lost; control: wild type
[11] = target: the molecule itself; assay: SDS-PAGE without heat denaturation, western blot; extracts of transduced cells run without prior heat denaturation, anti-OPCML blot

B1: soluble recombinant wild-type OPCML (residues 36-316, D1-D3) (domain or fragment, human, UniProt Q14982 36-316, looked up)
chain: ATFPKAMDNVTVRQGESATLRCTIDDRVTRVAWLNRSTILYAGNDKWSIDPRVIILVNTPTQYSIMIQNVDVYDEGPYTCSVQTDNHPKTSRVHLIVQVPPQIMNISSDITVNEGSSVTLLCLAIGRPEPTVTWRHLSVKEGQGFVSEDEYLEISDIKRDQSGEYECSALNDVAAPDVRKVKITVNYPPYISKAKNTGVSVGQKGILSCEASAVPMAEFQWFKEETRLATGLDGMRIENKGRMSTLTFFNVSEKDYGNYTCVATNKLGNTNASITLYGPGA
modifications: N-linked glycans modelled at asparagines 70, 293 and 306
notes: OPCML, human, UniProt Q14982, residues 36-316 (D1-D3); also called WT OPCML; rOPCML; source: Hi5 insect cells, baculovirus, secreted; purified (protein A, thrombin digestion, negative protein A, HiTrap Q, SEC); not shown: Fc (human IgG1, UniProt P01857 residues 118-330, joined by ALVPRGS), C-terminal, cleaved
- stoichiometry N [1]: 2

B2: soluble recombinant OPCML P95R (residues 36-316) (domain or fragment, human, UniProt Q14982 36-316, looked up)
chain: B1 chain with P60R
notes: OPCML, human, UniProt Q14982, residues 36-316 (D1-D3), clinical somatic mutation P95R; Same construct as m1 with P95R; PDB 5UV6 is the wild-type parent; ALVPR probably left at the C-terminus after thrombin (surmised); also called rP95R; source: Hi5 insect cells, baculovirus, secreted; purified (protein A, thrombin digestion, negative protein A, HiTrap Q, SEC); not shown: Fc (human IgG1, UniProt …)
- stoichiometry N [2]: 2

B3: soluble recombinant OPCML R65L (residues 36-316) (domain or fragment, human, UniProt Q14982 36-316, looked up)
chain: B1 chain with R30L
notes: OPCML, human, UniProt Q14982, residues 36-316 (D1-D3), clinical somatic mutation R65L; Same construct as m1 with R65L; PDB 5UV6 is the wild-type parent; ALVPR probably left at the C-terminus after thrombin (surmised); also called rR65L; source: Hi5 insect cells, baculovirus, secreted; purified (protein A, thrombin digestion, negative protein A, HiTrap Q, SEC); not shown: Fc (human IgG1, UniProt …)
- fold weaker Kd than WT OPCML [3]: ≥ 250 fold

B4: OPCML: N70H (protein)
parent chain: MGVCGYLFLPWKCLVVVSLRLLFLVPTGVPVRSGDATFPKAMDNVTVRQGESATLRCTIDDRVTRVAWLNRSTILYAGNDKWSIDPRVIILVNTPTQYSIMIQNVDVYDEGPYTCSVQTDNHPKTSRVHLIVQVPPQIMNISSDITVNEGSSVTLLCLAIGRPEPTVTWRHLSVKEGQGFVSEDEYLEISDIKRDQSGEYECSALNDVAAPDVRKVKITVNYPPYISKAKNTGVSVGQKGILSCEASAVPMAEFQWFKEETRLATGLDGMRIENKGRMSTLTFFNVSEKDYGNYTCVATNKLGNTNASITLYGPGAVIDGVNSASRALACLWLSGTLLAHFFIKF
- other: sensitisation to AXL inhibitor [4]: abolishes
- localisation_or_trafficking [5]: no change
- stability_or_folding, Tm [6]: decreases
- expression_or_secretion [7]: decreases
- other: aggregation [8]: increases
- other: R428-induced apoptosis [9]: abolishes
- expression_or_secretion [10]: no change

B5: wild-type OPCML expressed in transduced cancer cells (natural protein, human, UniProt Q14982 28-322, looked up)
chain: GVPVRSGDATFPKAMDNVTVRQGESATLRCTIDDRVTRVAWLNRSTILYAGNDKWSIDPRVIILVNTPTQYSIMIQNVDVYDEGPYTCSVQTDNHPKTSRVHLIVQVPPQIMNISSDITVNEGSSVTLLCLAIGRPEPTVTWRHLSVKEGQGFVSEDEYLEISDIKRDQSGEYECSALNDVAAPDVRKVKITVNYPPYISKAKNTGVSVGQKGILSCEASAVPMAEFQWFKEETRLATGLDGMRIENKGRMSTLTFFNVSEKDYGNYTCVATNKLGNTNASITLYGPGAVIDGVN
notes: OPCML, human, WT cDNA from pENTR4 shuttled to pLenti CMV Puro DEST; GPI-anchored, membrane-localized; also called WT OPCML; WT; source: SKOV3, PEA1, PEO1 and HCT116 cells, stably transduced (lentivirus, pLenti CMV Puro DEST); on cells or in lysate
- stoichiometry N [11]: 2
